In article PMC8809517, “Cofactor-independent RNA editing by a synthetic S-type PPR protein”:

Assays:
Experiment in all cases: high-throughput RNA pulldown from lysate on Ni-NTA beads; HRP: 50 mM Tris pH 8, 150 mM NaCl, 1 mM beta-mercaptoethanol, 50 ug/ml BSA, 3 ug/ml yeast RNA, 0.5% heparin; ITC and FP: Tris pH 8, 200 mM KCl, 5% glycerol; MST: 50 mM Tris pH 8, 200 mM NaCl, 1 mM DTT, BSA, heparin, 0.05% Tween 20
Conditions in all cases: tags: N-terminal His-eGFP
[1] = biological target: T1, GFP-9S library array, motif 4 ND N98E;D124M (synthetic construct, N98E;D124M)
T1 chain: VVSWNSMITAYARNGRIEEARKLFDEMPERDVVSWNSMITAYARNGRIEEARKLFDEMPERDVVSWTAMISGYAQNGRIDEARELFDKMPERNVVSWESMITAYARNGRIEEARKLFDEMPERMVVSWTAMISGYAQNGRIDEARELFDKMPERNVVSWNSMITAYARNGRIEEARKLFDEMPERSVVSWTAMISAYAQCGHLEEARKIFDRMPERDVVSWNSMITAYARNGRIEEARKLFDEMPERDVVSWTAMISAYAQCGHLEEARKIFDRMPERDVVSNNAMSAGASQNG

[2] = biological target: T2, GFP-9S library array, motif 4 ND N98K;D124Q (synthetic construct, N98K;D124Q)
T2 chain: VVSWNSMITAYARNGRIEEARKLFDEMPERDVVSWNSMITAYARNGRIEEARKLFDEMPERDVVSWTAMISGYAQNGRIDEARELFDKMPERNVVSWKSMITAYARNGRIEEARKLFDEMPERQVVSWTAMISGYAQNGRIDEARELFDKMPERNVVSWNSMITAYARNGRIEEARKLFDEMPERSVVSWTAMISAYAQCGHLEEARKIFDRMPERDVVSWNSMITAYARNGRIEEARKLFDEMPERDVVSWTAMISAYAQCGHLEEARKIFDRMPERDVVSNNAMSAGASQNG

[3] = biological target: T3, GFP-9S library array, motif 4 ND N98M;D124Y (synthetic construct, N98M;D124Y)
T3 chain: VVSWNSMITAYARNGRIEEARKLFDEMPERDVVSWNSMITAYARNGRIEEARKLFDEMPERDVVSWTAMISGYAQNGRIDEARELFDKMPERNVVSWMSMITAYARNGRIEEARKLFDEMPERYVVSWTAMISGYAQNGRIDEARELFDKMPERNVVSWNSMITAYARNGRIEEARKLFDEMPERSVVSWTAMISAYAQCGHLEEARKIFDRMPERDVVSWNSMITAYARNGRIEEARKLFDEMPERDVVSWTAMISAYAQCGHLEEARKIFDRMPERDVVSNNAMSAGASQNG

[4] = biological target: T4, GFP-9S library array, motif 4 ND D124G (synthetic construct, D124G)
T4 chain: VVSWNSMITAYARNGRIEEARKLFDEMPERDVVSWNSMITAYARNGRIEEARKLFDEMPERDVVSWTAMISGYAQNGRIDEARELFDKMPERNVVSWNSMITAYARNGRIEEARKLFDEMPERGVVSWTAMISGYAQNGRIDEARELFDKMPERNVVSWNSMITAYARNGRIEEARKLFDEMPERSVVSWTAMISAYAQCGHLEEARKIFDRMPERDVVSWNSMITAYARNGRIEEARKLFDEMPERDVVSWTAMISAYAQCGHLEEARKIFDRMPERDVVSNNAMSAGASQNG

[5] = biological target: T5, GFP-9S library array, motif 4 ND N98M;D124E (synthetic construct, N98M;D124E)
T5 chain: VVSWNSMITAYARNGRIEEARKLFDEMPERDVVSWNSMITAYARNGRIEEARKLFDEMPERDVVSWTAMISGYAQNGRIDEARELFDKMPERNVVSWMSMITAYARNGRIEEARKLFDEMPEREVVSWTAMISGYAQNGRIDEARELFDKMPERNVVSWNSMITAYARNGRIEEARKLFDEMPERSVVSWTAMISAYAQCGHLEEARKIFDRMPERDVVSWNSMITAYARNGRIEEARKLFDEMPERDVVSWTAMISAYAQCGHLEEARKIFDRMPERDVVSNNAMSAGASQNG

Binder | Kd ([1]; label: 5' Cy5) [nM] | Kd ([2]; label: 5' Cy5) [nM] | Kd ([3]; label: 5' Cy5) [nM] | Kd ([4]; label: 5' Cy5) [nM] | Kd ([5]; label: 5' Cy5) [nM] | Kd ([1]; label: 5' IRDye 800CW) [nM] | Kd ([2]; label: 5' IRDye 800CW) [nM] | Kd ([3]; label: 5' IRDye 800CW) [nM] | Kd ([4]; label: 5' IRDye 800CW) [nM] | Kd ([5]; label: 5' IRDye 800CW) [nM]
AUUACACGUGA (ssRNA) [Cy5-rpoA] | 105 | 71.3 | 216 | 30.7 | 117 | – | – | – | – | –
AUUAGACGUGA (ssRNA) [Cy5-rpoA-G] | 136 | 81.3 | 167 | 445 | 89 | – | – | – | – | –
AUUAUACGUGA (ssRNA) [IR-rpoA-U] | – | – | – | – | – | 206 | 63.7 | 682 | 30.7 | 158
AUUAAACGUGA (ssRNA) [IR-rpoA-A] | – | – | – | – | – | 360 | 110 | 488 | 136 | 264
